Data as given in article PMC8232910.

Molecular target: EccD5 (Mycobacterium xenopi ESX-5 type VII secretion system) (Mycobacterium xenopi)
Assay: cryo-EM structure; purified ESX-5 complex (void peak fraction) in 20 mM tris (pH 8), 150 mM NaCl; C6 global map 3.4 Å and locally refined map of the cytosolic part 3.0 Å; de novo atomic model of the transmembrane and membrane-adjacent cytoplasmic regions

“EccD5 (Mycobacterium xenopi ESX-5 type VII secretion system) (natural protein)” was tested, and the stoichiometry N was 2.
